Experimental findings from patent US20250388664A1 (BIOARCTIC, published 2025) are described below.

For assay [1], the target named is T1, AβpE3-40 monomer (UniProt P05067 674-711, pyroglutamate at position 3 (N-terminal residue)).
T1 construct: range 3-40 (Aβ numbering); Synthetic peptide (Bachem/Anaspec), verified monomeric by SEC; also called monomeric AβpE3-40
As to the kind of experiment: SPR, antibody immobilised, monomer injected, 1:1 fit. How it is done: (§1) Single cycle kinetics with the antibodies immobilized on a CM5 chip was used to measure the binding of the antibodies to the AβpE3-40 monomer. For the measurements, 5 μg/ml of analyte antibody was immobilized on the chip. […] Regeneration of the surface between cycles was done by injecting 30 μl 3 M MgCl₂. The binding data was fitted to a 1:1 interaction model.
(§2) In all SPR experiments, 1×HBS-EP+ (Cytiva, cat. no. BR100669) was used to dilute antibodies and target antigens. Experiments were performed at 25° C.
(§3) Affinity evaluation and KD determination by surface plasmon resonance: Binding interactions between antigens and antibodies were evaluated by SPR using a Biacore 8K instrument (Cytiva) according to standard procedures.

The target in assay [2] is T2, Aβ3-28 monomer (UniProt P05067 674-699).
T2 construct: range 3-28 (Aβ numbering)
T2 sequence (P05067 674-699): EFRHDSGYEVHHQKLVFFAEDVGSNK
Briefly: inhibition ELISA, antigen titrated in solution, AβpE3-40 coat. The protocol:
(§4) The humanized antibodies were incubated at a fixed concentration (0.5 μg/ml) with titrating concentrations of the different Aβ antigens. After incubation for 45 min at 900 rpm to reach equilibrium, the antibody-Aβ samples were added to a blocked and washed ELISA plate with an AβpE3-40 coat (0.5 μM). The samples were incubated on the plate for 25 min without shaking followed by washing, incubation with detection antibody, another washing step and finally incubation with alkaline phosphatase substrate.
(In general: ELISA stands for enzyme-linked immunosorbent assay.)

Assay [3] concerns the target T3, AβpE3-28 monomer (UniProt P05067 674-699, pyroglutamate at position 3 (N-terminal residue)).
T3 construct: range 3-28 (Aβ numbering)
Described as above. The protocol:
as §4

In assay [4] the target is T1, AβpE3-40 monomer. The assay is described as above.
Assay [5] addresses T4, Aβ1-40 monomer (UniProt P05067 672-711).
T4 construct: range 1-40 (Aβ numbering)
The description is as above.

Assay [6] deals with T5, Aβ1-42 protofibrils (UniProt P05067 672-713).
T5 construct: range 1-42 (Aβ numbering); Soluble aggregates made from Aβ1-42 monomer
T5 sequence (P05067 672-713): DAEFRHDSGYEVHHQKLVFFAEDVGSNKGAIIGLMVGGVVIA
Described as above.

In assay [7] the target is T6, AβpE3-42 protofibrils (UniProt P05067 674-713, pyroglutamate at position 3 (N-terminal residue)).
T6 construct: range 3-42 (Aβ numbering); Soluble aggregates made from AβpE3-42 peptide, purified in the void peak of SEC; also called AβpE3-42 PF
T6 sequence (P05067 674-713): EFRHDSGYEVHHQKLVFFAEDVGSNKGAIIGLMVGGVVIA
Described as above.

Assay [8] deals with T6, AβpE3-42 protofibrils. Briefly: SPR, protofibrils immobilised, antibody injected, 1:1 fit, apparent; Table 10; apparent KD on AβpE3-42 protofibrils. How it is done: (§5) Single cycle kinetics was also used to measure binding of the antibodies to AβpE3-42 protofibrils. […] Regeneration of the surface between cycles was done by injecting 30 μl 10 mM glycine-HCl pH 1.7. The binding data was fitted to a 1:1 interaction model.
as §2
Background: SPR reads the build-up and loss of mass on a sensor chip optically.

The target in assay [9] is T6, AβpE3-42 protofibrils. As to the kind of experiment: SPR, protofibrils immobilised, antibody injected, 1:1 fit, apparent. How it is done:
as §5, §2, §3

Assay [10] has as its target T1, AβpE3-40 monomer. Briefly: inhibition ELISA, antigen titrated in solution, AβpE3-40 coat. How it is done:
(§6) The humanized antibodies were incubated at a fixed concentration (0.1 μg/ml) with titrating concentrations of the different Aβ antigens. After incubation for 45 min at 900 rpm to reach equilibrium, the antibody-Aβ samples were added to a blocked and washed ELISA plate with an AβpE3-40 coat (0.5 μM). The samples were incubated on the plate for 25 min without shaking followed by washing, incubation with detection antibody, another washing step and finally incubation with alkaline phosphatase substrate.
The source holds these as a separate data set.

Assay [11] concerns the target T4, Aβ1-40 monomer. Described as above. How it is done: as §6
This is another data set of the same source.

The target in assay [12] is T5, Aβ1-42 protofibrils. The assay is described as above. How it is done: as §6
The source holds these as a separate data set.

Assay [13] has as its target T6, AβpE3-42 protofibrils. The description is as above. How it is done:
as §6
The source holds these as a separate data set.

The next assay concerns the target T7, Aβ4-28 monomer (UniProt P05067 675-699).
T7 construct: range 4-28 (Aβ numbering)
Described as above. How it is done: as §4

The target in a further assay is T8, AβpE11-28 monomer (UniProt P05067 682-699, pyroglutamate at position 11 (N-terminal residue)).
T8 construct: range 11-28 (Aβ numbering)
T8 peptide (looked up): EVHHQKLVFFAEDVGSNK
The description is as above. The protocol: as §4

Assay [14] has as its target T2, Aβ3-28 monomer. Described as above. The protocol: as §4
This is another data set of the same source.

Assay [15] addresses T3, AβpE3-28 monomer. The description is as above. How it is done:
as §4
The source holds these as a separate data set.

For assay [16], the target named is T9, Aβ1-28 monomer (UniProt P05067 672-699).
T9 construct: range 1-28 (Aβ numbering)
T9 sequence (P05067 672-699): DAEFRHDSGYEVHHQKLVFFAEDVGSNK
The description is as above. The protocol: as §4

The next assay addresses T10, Aβ2-28 monomer (UniProt P05067 673-699).
T10 construct: range 2-28 (Aβ numbering)
The assay is described as above. The protocol: as §4

The next assay has as its target T11, Aβ5-28 monomer (UniProt P05067 676-699).
T11 construct: range 5-28 (Aβ numbering)
The assay is described as above. The protocol: as §4

The target of assay [17] is T6, AβpE3-42 protofibrils. As to the kind of experiment: SPR, protofibrils immobilised, antibody injected, 1:1 fit, apparent. The protocol:
as §5, §2
The source holds these as a separate data set.

Assay [18] concerns the target T1, AβpE3-40 monomer. Briefly: SPR, antibody immobilised, monomer injected, 1:1 fit. How it is done: as §1, §2
The source holds these as a separate data set.

For assay [19], the target named is T6, AβpE3-42 protofibrils. Briefly: SPR, protofibrils immobilised, antibody injected, 1:1 fit, apparent; apparent KD on AβpE3-42 protofibrils. How it is done: as §5, §2
The target of assay [20] is T9, Aβ1-28 monomer. Briefly: inhibition ELISA, antigen titrated in solution, AβpE3-40 coat. The protocol: as §4
This is another data set of the same source.

The target in assay [21] is T6, AβpE3-42 protofibrils. As to the kind of experiment: SPR, protofibrils immobilised, antibody injected, 1:1 fit, apparent; binding to AβpE3-42 protofibrils; KD in pM. The protocol: as §5, §2, §3

Residue numbers refer to the chain shown, from its start. Names may count otherwise. Like-named read-outs stand apart in the source and are kept apart here.

T1 sequence (P05067 674-711): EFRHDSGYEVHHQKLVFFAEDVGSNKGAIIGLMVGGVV
T4 sequence (P05067 672-711): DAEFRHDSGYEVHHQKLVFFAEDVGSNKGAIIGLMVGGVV
T11 sequence (P05067 676-699): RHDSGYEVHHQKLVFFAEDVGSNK
T7 sequence (P05067 675-699): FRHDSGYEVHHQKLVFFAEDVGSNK
T10 sequence (P05067 673-699): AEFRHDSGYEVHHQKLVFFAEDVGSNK

B1: H2L7 (antibody, human IgG1, kappa, V domains shown)
VH: EVQLVQSGAEVKKPGASVRLSCKASGYSFTGFTMNWVRQALGQGLEWMGLINPYNGVTTYNQKFKGRLTMTRDMSTRTVYMDLSSLRYEDTAVYYCTREGNWEGVYWGQGTLVTVSS
VL: EIVLTQSPLSLSVTLGQSASISCRSSQSLLDSNGKTYLHWFILRPGQSPRRLIYLVSILDSGVPDRFSGSGSGTDFTLKISRVEAEDVGVYYCVQGTHFPFTFGSGTKLEIKR
notes: Humanized IgG1/kappa, expressed in CHO cells; also called humanized Pyr12.2 variant H2L7; VH2/VL7
One may read the koff as a measure of how fast the partners let go of each other. As a reminder, the kon is a measure of how fast the partners come together. As a reminder, the IC50 is the concentration needed to halve the response being measured. As to B1, the Kd turned out to be 2.54 nM in the assay with AβpE3-40 monomer [1], 0.173 nM with AβpE3-42 protofibrils [8] and 2.54 nM with AβpE3-40 monomer [18]. Moreover, the koff is 0.000125 s⁻¹ with AβpE3-40 monomer [1], 1.79e-05 s⁻¹ with AβpE3-42 protofibrils [9], 1.79e-05 s⁻¹ in the assay with AβpE3-42 protofibrils [17] and 0.000125 s⁻¹ with AβpE3-40 monomer [18]. Also, the association rate constant (kon) amounted to 50500 M⁻¹ s⁻¹ with AβpE3-40 monomer [1], 107000 M⁻¹ s⁻¹ with AβpE3-42 protofibrils [9], 107000 M⁻¹ s⁻¹ with AβpE3-42 protofibrils [17] and 50500 M⁻¹ s⁻¹ with AβpE3-40 monomer [18]. For the same molecule, the IC50 with Aβ3-28 monomer [2] was 2350 nM; with AβpE3-28 monomer [3], 3.6 nM; in the assay with AβpE3-40 monomer [4], 2.35 nM; with Aβ1-40 monomer [5], over 500 nM; with Aβ1-42 protofibrils [6], over 132 nM; with AβpE3-42 protofibrils [7] it was 3 nM. Further, the concentration for half-maximal inhibition (IC50) with AβpE3-40 monomer [10] was 2.6 nM; in the assay with Aβ1-40 monomer [11], over 12.5 µM; with Aβ1-42 protofibrils [12] it was over 500 nM; in the assay with AβpE3-42 protofibrils [13], 2.5 nM; with Aβ4-28 monomer it was over 12.5 µM; with AβpE11-28 monomer it was over 12.5 µM. For the same molecule, the IC50 was 1870 nM with Aβ3-28 monomer [14]; 5.5 nM with AβpE3-28 monomer [15]; over 12.5 µM with Aβ1-28 monomer [16]; over 12.5 µM with Aβ2-28 monomer; over 12.5 µM with Aβ5-28 monomer.

B2: H9L8 (antibody, human IgG1, kappa, V domains shown)
VH: QVQLVQSGPEVKKPGSSVKVSCKASGYSFTGFTMNWVRQTPGKGLEWIGLINPYNGVTTYNQKFKGRVTITADESTRTAYMELLSLTYEDTAVYYCTREGNWEGVYWGQGTPVTVSA
VL: B1 VL with I2V, L11I, V63I, S105G
notes: Humanized IgG1/kappa, expressed in CHO cells; also called humanized Pyr12.2 variant H9L8; VH9/VL8
For the molecule B2, the Kd is 0.464 nM in the assay with AβpE3-42 protofibrils [19] and 2.7 nM with AβpE3-40 monomer [18]. For the same molecule, the IC50 was 2.1 nM with AβpE3-40 monomer [10]; over 12.5 µM in the assay with Aβ1-40 monomer [11]; over 500 nM in the assay with Aβ1-42 protofibrils [12]; 4.9 nM with AβpE3-42 protofibrils [13]; over 12.5 µM in the assay with Aβ4-28 monomer; over 12.5 µM in the assay with AβpE11-28 monomer. Further, the half-inhibitory concentration (IC50) in the assay with Aβ3-28 monomer [14] is 1790 nM; with AβpE3-28 monomer [15], 3.5 nM; in the assay with Aβ1-28 monomer [16], over 12.5 µM; with Aβ2-28 monomer, over 12.5 µM; with Aβ5-28 monomer, over 12.5 µM. Also, the koff amounted to 2.05e-05 s⁻¹ with AβpE3-42 protofibrils [17] and 0.000139 s⁻¹ with AβpE3-40 monomer [18]. The results for the kon with AβpE3-42 protofibrils [17] and with AβpE3-40 monomer [18] were 44300 M⁻¹ s⁻¹ and 53700 M⁻¹ s⁻¹, respectively.

B3: H2L7-K12V/R71A (antibody, human IgG1, kappa)
heavy: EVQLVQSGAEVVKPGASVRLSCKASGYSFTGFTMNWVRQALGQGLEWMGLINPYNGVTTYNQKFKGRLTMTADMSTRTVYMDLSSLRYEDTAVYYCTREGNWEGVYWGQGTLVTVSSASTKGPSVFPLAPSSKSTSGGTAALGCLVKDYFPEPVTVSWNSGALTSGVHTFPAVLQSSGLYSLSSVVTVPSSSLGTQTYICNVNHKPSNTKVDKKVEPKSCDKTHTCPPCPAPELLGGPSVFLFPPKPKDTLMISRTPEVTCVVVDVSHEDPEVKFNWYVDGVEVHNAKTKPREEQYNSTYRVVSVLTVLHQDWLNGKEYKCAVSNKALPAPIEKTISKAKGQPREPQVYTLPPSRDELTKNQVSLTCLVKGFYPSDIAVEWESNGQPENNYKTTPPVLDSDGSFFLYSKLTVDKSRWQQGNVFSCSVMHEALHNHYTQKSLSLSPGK
light: EIVLTQSPLSLSVTLGQSASISCRSSQSLLDSNGKTYLHWFILRPGQSPRRLIYLVSILDSGVPDRFSGSGSGTDFTLKISRVEAEDVGVYYCVQGTHFPFTFGSGTKLEIKRTVAAPSVFIFPPSDEQLKSGTASVVCLLNNFYPREAKVQWKVDNALQSGNSQESVTEQDSKDSTYSLSSTLTLSKADYEKHKVYACEVTHQGLSSPVTKSFNRGEC
notes: VH variant of H2L7; VL and constant domains identical to H2L7
Turning to B3, the Kd with AβpE3-40 monomer [1] was 4.14 nM; with AβpE3-42 protofibrils [21] it was 0.477 nM. Further, the off-rate constant (koff) in the assay with AβpE3-40 monomer [1] was 0.000233 s⁻¹; with AβpE3-42 protofibrils [9] it was 2.92e-05 s⁻¹. The kon with AβpE3-40 monomer [1] amounted to 59000 M⁻¹ s⁻¹; in the assay with AβpE3-42 protofibrils [9] it was 61200 M⁻¹ s⁻¹. The IC50 was 2820 nM with Aβ3-28 monomer [2]; 3 nM with AβpE3-28 monomer [3]; 10.2 µM with Aβ1-28 monomer [20]; 1.69 nM with AβpE3-40 monomer [4]; over 500 nM in the assay with Aβ1-40 monomer [5]; over 132 nM with Aβ1-42 protofibrils [6]. In addition, the IC50 in the assay with AβpE3-42 protofibrils [7] stood at 3.58 nM.
